We go through 2 molecules from paper PMC4756369 (2016).

In experiment [1] the target is F-actin (skeletal muscle, phalloidin stabilized) (Oryctolagus cuniculus, UniProt P68135). Put plainly: co-sedimentation.
Experiment [2] has as its target F-actin (skeletal muscle) (Oryctolagus cuniculus, UniProt P68135). Put plainly: co-sedimentation.

One may read the Kd as the concentration at which binding is half-saturated. A higher Kd goes with a looser complex.

Residue numbers refer to the chain shown, from its start.

B1: β-III-spectrin ABD 1-284 (protein)
chain: MSSTLSPTDFDSLEIQGQYSDINNRWDLPDSDWDNDSSSARLFERSRIKALADEREAVQKKTFTKWVNSHLARVTCRVGDLYSDLRDGRNLLRLLEVLSGEILPKPTKGRMRIHCLENVDKALQFLKEQKVHLENMGSHDIVDGNHRLTLGLVWTIILRFQIQDISVETEDNKEKKSAKDALLLWCQMKTAGYPNVNVHNFTTSWRDGLAFNAIVHKHRPDLLDFESLKKCNAHYNLQNAFNLAEKELGLTKPLDPEDVNVDQPDEKSIITYVATYYHYFSKMK
Take B1: the dissociation constant (Kd) in experiment [1] was 75.5 nM.

B2: β-III-spectrin ABD 1-284 (protein)
chain: B1 chain with P253L
B2 returned a Kd in experiment [2] of 75.8 µM.
